Source: paper PMC1289080
Like-named read-outs stand apart in the source and are kept apart here.

Experiments:
L7Ae [1] = molecular target: T1, L7Ae (Pyrococcus abyssi, UniProt P62008 1-123); assay: EMSA
L7Ae [2] = molecular target: T1, L7Ae; assay: EMSA; remark: listed apart in the source

B1: sR47 mut C/D and C'/D' (structured_RNA)
RNA: GAUGAAGAUUCUGAGCUCGGCAGGUCCUUCGGAGUUCUGAGGAUCUUGAGUGCUUCUUCACCUU
- binding result (L7Ae [1]): no binding

Binder: GGGACUUCGCAGUUCUGACCC (structured_RNA) [sR6 mut C'/D']
- binding result (L7Ae [1]): no binding

Binder: GGGACUGAGCAUUGAUGACCC (structured_RNA) [sR6 L2]
- binding result (L7Ae [1]): no binding

Binder: GGGACUGACCCGUGAUGACCC (structured_RNA) [sR6 LC]
- binding result (L7Ae [1]): no binding

Binder: GGGACUGACCAGUGAUGACCC (structured_RNA) [sR6 CCA spacer]
- binding result (L7Ae [2]): no binding

Binder: GGGACUGAGGGUGAUGACCC (structured_RNA) [sR6 2-nt spacer GG]
- binding result (L7Ae [2]): no binding
